Where “and” joins values, the source holds several entries; their conditions need not be identical. Equal entries are not always repeated.

In data set [1] the test system is CT-26 cells. Nature of the data set: Flow cytometry for ecto-CRT exposure in L-ASNase-treated CT-26 cells. The note with it: 200 IU/mL, 24 h. In kind it is cell-based, mouse. How it is done:
FIG. 6a is a graph showing the analysis of the cytotoxicity enhanced by CRT3LP and CRT4LP in tumor cells treated with ICD-induced anticancer agents and the viability of tumor cells treated with L-ASNases. CT-26 cells (4×10^4) cultured overnight were treated with L-ASNases (200 IU/mL) in 96-well plates and viability was measured at the indicated times. The viability at each time was calculated relative to time 0. Cells were stained with anti-CRT antibodies.
FIG. 6b is a graph representing the results of flow cytometry histogram analysis for ecto-CRT. Filled black lines stained with isotype antibodies; red lines stained with anti-CRT antibodies.

A short description of data set [2]: Thermal stability analysis at 55° C. In kind it is physicochemical. The note with it: after 180 min. How it is done: Briefly, 200 μL of PASylated recombinant protein or L-ASNase (1 mg/mL) was incubated in a thermal cycler (Finepcr, Korea) at 55° C. for 30-180 min. The residual enzymatic activity of the proteins was measured using an asparaginase activity analysis kit as described above. The residual activity (%) at each incubation time was calculated relative to the sample activity at time 0.

The nature of data set [3]: In vivo pharmacokinetic analysis. Further details: species or system BALB/c mice. The note with it: 10 IU intravenous, mouse serum. On the procedure:
Six-week-old female BALB/c mice (Orient Company, Korea) were randomly assigned to different treatment groups (n=3) and intravenously injected with 10 IU of PASylated recombinant protein. Then, blood samples were taken from the eyes at the specified time (0-52 h) and left at 4° C. for 40 min. After centrifugation at 12,000 rpm for 20 min, the serum fraction was obtained and stored at −80° C. before further analysis. PASylated recombinant protein in serum was assessed using the ELISA method described above. The amount of serum recombinant protein was converted to enzyme activity.

Data set [4] relates to CT-26 cells. Nature of the data set: Cell viability (CCK-8) of CT-26 cells. In kind it is cell-based, mouse. On the procedure: CT-26 and MC-38 cells (10^4 cells per well) were seeded into three wells of a 96-well plate and incubated at 37° C. The next day, the culture medium was replaced with 100 μL of fresh medium containing the above concentrations of anticancer agents. After incubation at 37° C. for 4 h, the culture medium was removed and the cells were washed three times with PBS. […] Finally, CCK-8 reagent (10 μL/well) was added for 3 h at 37° C., and the amount of color in each sample was measured at OD450.

A short description of data set [5]: L-ASNase activity analysis (asparaginase activity kit). In kind it is biochemical. The note with it: 25° C. On the procedure: The L-ASNase enzyme activity of the recombinant proteins was measured with an asparaginase activity analysis kit using an OxiRed probe (Abcam, USA). 1 International unit (IU) was defined as the amount of enzyme generating 1.0 μmol of Asp per minute at 25° C.

B1: L-ASNase: L-asparaginase, enzyme that hydrolyzes L-asparagine; purchased from Prospec, used as free control (protein)
chain: LPNITILATGGTIAGGGDSATKSNYTAGKVGVENLVNAVPQLKDIANVKGEQVVNIGSQDMNDDVWLTLAKKINTDCDKTDGFVITHGTDTMEETAYFLDLTVKCDKPVVMVGAMRPSTSMSADGPFNLYNAVVTAADKASANRGVLVVMNDTVLDGRDVTKTNTTDVATFKSVNYGPLGYIHNGKIDYQRTPARKHTSDTPFDVSKLNELPKVGIVYNYANASDLPAKALVDAGYDGIVSAGVGNGNLYKTVFDTLATAAKNGTAVVRSSRVPTGATTQDVEVDDAKYGFVASGTLNPQKARVLLQLALTQTKDPQQIQQIFNQY
modifications: L-asparaginase
notes: L-asparaginase, enzyme that hydrolyzes L-asparagine; purchased from Prospec, used as free control
Turning to B1, the “CRT exposure (ecto-CRT)” value in the data set on CT-26 cells [1] is reported as “no significant CRT exposure”. Besides, the “residual enzymatic activity, of the initial activity” value in data set [2] worked out at 16.4%. For the same molecule, the half-life in data set [3] is 1.8 h and 1.79 ± 0.22 h. In addition, in the data set on CT-26 cells [4] (1 IU/mL, 24 h after pretreatment), the “reduction of cell viability in cells pretreated with anticancer agents” value is “barely reduced”. Besides, in the data set with CT-26 cells [4] (200 IU/mL, 24 h, no anticancer pretreatment), the cell viability entry is recorded as “progressive decrease in viability”. Besides, the “enzymatic activity (specific activity)” value in data set [5] is approximately 7.2 IU/nmol.

The record behind these values is patent US20250376507A1, “NOVEL TUMOR ANTIGEN-TARGETING ANTICANCER AGENT” (INDUSTRY FOUNDATION OF CHONNAM NATIONAL UNIVERSITY, priority 2022, published 2025).
